In patent US20210338833A1 (MIT, published 2021):
Ends that are not written are not given here. * marks the point of attachment. Biotin = O=C1N[C@H]2[C@H](CS[C@H]2CCCCC(=O)*)N1

B1: FMC63 Mimotope (H1) RVCPWSCMPI (peptide)
peptide: RVCPWSCMPI
notes: Not the 1D3 mimotope that is also called H1
B2: biotinylated F12 derivative GGGSASRICPWNCKEL (peptide)
peptide: Biotin-GGGSASRICPWNCKEL
modifications: not fully specified (bridges); cysteine pairing not given here
notes: Free peptide loaded on a streptavidin coated plate for ELISA
B3: biotinylated F12 derivative GGGGSGGGGSGGGGSASRICPWNCKEL (peptide)
peptide: Biotin-GGGGSGGGGSGGGGSASRICPWNCKEL
modifications: not fully specified (bridges); cysteine pairing not given here
notes: as for B2
B4: biotinylated F12 derivative GSGGGGSGGGGSASRICPWNCKEL (peptide)
peptide: Biotin-GSGGGGSGGGGSASRICPWNCKEL
modifications: not fully specified (bridges); cysteine pairing not given here
notes: as for B2
B5: biotinylated F12 derivative SASRICPWNCKEL (peptide)
peptide: Biotin-SASRICPWNCKEL
modifications: not fully specified (bridges); cysteine pairing not given here
notes: as for B2
B6: biotinylated F12 derivative GGSGGGGSASRICPWNCKEL (peptide)
peptide: Biotin-GGSGGGGSASRICPWNCKEL
modifications: not fully specified (bridges); cysteine pairing not given here
notes: as for B2

The binders below were run against T1, anti-mCD19 (clone 1D3) IgG (assay: yeast display selection with 1D3 IgG).
T1 construct: Anti-mouse CD19 IgG; biotinylated for sorting; also called 1D3 antibody; anti-mCD19 IgG
T1 sequence (VH, as listed by the source, chain 1 of 2): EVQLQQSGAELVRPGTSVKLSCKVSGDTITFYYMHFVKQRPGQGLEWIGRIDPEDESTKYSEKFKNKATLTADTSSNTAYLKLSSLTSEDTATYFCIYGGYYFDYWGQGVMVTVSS
T1 sequence (VL, as listed by the source, chain 2 of 2): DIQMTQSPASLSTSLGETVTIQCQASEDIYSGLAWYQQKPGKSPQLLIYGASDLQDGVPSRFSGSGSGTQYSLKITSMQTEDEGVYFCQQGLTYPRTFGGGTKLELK
Experimental: Specifically, a library was generated using nested PCR and the primers in Table 1. […] For each round of enrichment, the top 0.5-1% of yeast were sorted. Following enrichment, isolated clones were subjected to Sanger sequencing. […] To further characterize the mimotope affinity, absolute binding affinity was measured by ELISA. Specifically, three mimotopes were selected for screening (Table 8). Of the selected sequences, two fusion mimotopes were chemically synthesized. Specifically, two mimotopes were fused to form a 20 amino acid peptide (Table 9).
SKLKGKSGPE [1D3 Mimotope (H1) SKLKGKSGPE]: binds.

Each binder was assayed against T2, FMC63 IgG (assay: flow cytometry of yeast-displayed mutant with 5 µM FMC63 IgG).
T2 construct: Murine monoclonal antibody to human CD19; also called FMC63 IgG antibody; biotinylated FMC63 IgG
T2 sequence (VH, as listed by the source, chain 1 of 2): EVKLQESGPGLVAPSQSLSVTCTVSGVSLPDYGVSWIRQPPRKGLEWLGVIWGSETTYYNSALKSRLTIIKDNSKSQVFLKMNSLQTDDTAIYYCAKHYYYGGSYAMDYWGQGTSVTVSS
T2 sequence (VL, as listed by the source, chain 2 of 2): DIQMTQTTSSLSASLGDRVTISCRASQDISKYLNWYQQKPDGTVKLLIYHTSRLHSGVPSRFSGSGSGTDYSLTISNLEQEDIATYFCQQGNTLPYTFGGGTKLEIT
Experimental: Specifically, a representative mimotope, […] […] To generate mutations, two complementary oligos with the codon replaced at the desired site were denatured at 95° C. and annealed by slow cooling to 25° C. (decreasing by 0.5° C./second). The annealed oligos were treated with T4 PNK (T4 Polynucleotide Kinase) to add a terminal phosphate, and then ligated into digested pCT-CON2 vector. Positive clones having the correct oligo inserted were tested and transformed into competent EBY100 yeast cells.
RLCPWSCAEL (also called G9 X3 (Arg 8) to Ala) [FMC63 Mimotope Mutant RLCPWSCAEL]: binds. RACPWSCREL (also called G9 X1 (Leu 2) to Ala) [FMC63 Mimotope Mutant RACPWSCREL]: binds. RLCPWSCREA (also called G9 X5 (Leu 10) to Ala) [FMC63 Mimotope Mutant RLCPWSCREA]: binds. RLCPWACREL (also called G9 X2 (Ser 6) to Ala) [FMC63 Mimotope Mutant RLCPWACREL]: binds. RLCPWSCRAL (also called G9 X4 (Glu 9) to Ala) [FMC63 Mimotope Mutant RLCPWSCRAL]: binds.

Each binder was assayed against T3, FMC63 scFv (biotinylated) (assay: yeast-display FACS titration with biotinylated FMC63 scFv).
T3 construct: Whole scFv entry (VL-(G4S)3-VH); also called FMC63-scFv monomer; biotinylated FMC63 scFv
T3 sequence (scFv, as listed by the source): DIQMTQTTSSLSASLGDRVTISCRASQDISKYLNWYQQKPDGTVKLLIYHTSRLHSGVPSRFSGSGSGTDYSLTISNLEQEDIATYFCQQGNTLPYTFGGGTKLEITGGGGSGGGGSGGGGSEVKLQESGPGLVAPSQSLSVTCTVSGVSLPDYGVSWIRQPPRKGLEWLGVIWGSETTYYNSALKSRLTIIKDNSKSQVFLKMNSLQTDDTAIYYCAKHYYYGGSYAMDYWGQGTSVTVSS
Work on RICPWNCKEL (also called F12 mimotope) [FMC63 Mimotope (F12) RICPWNCKEL] yielded a Kd of 42 nM. B1 was tested, and the Kd was 178 nM. Work on RLCPWSCREL (Parent of the alanine scan) [FMC63 Mimotope (G9) RLCPWSCREL] yielded a Kd of 50.6 nM. RLCPWNCREL [FMC63 Mimotope (G11) RLCPWNCREL] showed a Kd of 38.4 nM. Work on RICPWSCREL [FMC63 Mimotope (H11) RICPWSCREL] yielded a Kd of 38.6 nM. With RLCPWDCREL [FMC63 Mimotope (F8) RLCPWDCREL] the Kd was 41.5 nM. Work on RICPWACVEL [FMC63 Mimotope (H8) RICPWACVEL] yielded a Kd of 38.9 nM. RRCPWSCKKQ [FMC63 Mimotope (A12) RRCPWSCKKQ] was tested, and the Kd was 240 nM. In the case of RMCPWSCYEL [FMC63 Mimotope (C5) RMCPWSCYEL], the Kd is reported as 238 nM. RLCPWACQEQ [FMC63 Mimotope (C7) RLCPWACQEQ] was tested, and the Kd was 219 nM. For RLCPWSCVPI [FMC63 Mimotope (E6) RLCPWSCVPI], the Kd was 126 nM.

These binders were tested against T2, FMC63 IgG (assay: yeast display FACS selection with biotinylated FMC63 IgG, first sort).
Text: (§1) As in Example 1, a yeast library was generated using nested PCR and the primers in Table 3.
RICPWACLSL [FMC63 Mimotope RICPWACLSL]: binds. RLCPWDCLIL [FMC63 Mimotope RLCPWDCLIL]: binds. RLCPWHCAII [FMC63 Mimotope RLCPWHCAII]: binds. RVCPWSCVEQ [FMC63 Mimotope RVCPWSCVEQ]: binds. RICPWNCSKL [FMC63 Mimotope RICPWNCSKL]: binds. RLCPWSCMPR [FMC63 Mimotope RLCPWSCMPR]: binds. RLCPWACRQL [FMC63 Mimotope RLCPWACRQL]: binds. RLCPWNCIHW [FMC63 Mimotope RLCPWNCIHW]: binds. RLCPWECRVL [FMC63 Mimotope RLCPWECRVL]: binds.

The binders below were run against T2, FMC63 IgG (assay: yeast display FACS selection with biotinylated FMC63 IgG, second sort).
Text: as §1
RLCPWSCLEI [FMC63 Mimotope RLCPWSCLEI]: binds. RLCPWSCIPF [FMC63 Mimotope RLCPWSCIPF]: binds. RLCPWSCIKL [FMC63 Mimotope RLCPWSCIKL]: binds. RICPWGCKEL [FMC63 Mimotope RICPWGCKEL]: binds. RICPWDCKPI [FMC63 Mimotope RICPWDCKPI]: binds. RICPWSCVKQ [FMC63 Mimotope RICPWSCVKQ]: binds. RLCPWSCVEQ [FMC63 Mimotope RLCPWSCVEQ]: binds. RICPWSCMEL [FMC63 Mimotope RICPWSCMEL]: binds. RLCPWNCSEL [FMC63 Mimotope RLCPWNCSEL]: binds. RLCPWNCQEL [FMC63 Mimotope RLCPWNCQEL]: binds. RLCPWKCREL [FMC63 Mimotope RLCPWKCREL]: binds. RLCPWDCKEL [FMC63 Mimotope RLCPWDCKEL]: binds. RICPWSCVEL [FMC63 Mimotope RICPWSCVEL]: binds. RLCPWNCRQL [FMC63 Mimotope RLCPWNCRQL]: binds. RICPWSCRPL [FMC63 Mimotope RICPWSCRPL]: binds. RICPWSCIEL [FMC63 Mimotope RICPWSCIEL]: binds. RMCPWNCREL [FMC63 Mimotope RMCPWNCREL]: binds.

The binders below were run against T2, FMC63 IgG (assay: ELISA, N-terminally biotinylated peptide on streptavidin plate, FMC63 IgG).
B2 was tested, and the Kd was 0.141 nM. B3 was tested, and the Kd was 0.153 nM. For B4, the Kd was 0.134 nM. B5 showed a Kd of 0.147 nM. For B6, the Kd was 0.139 nM.

Each binder was assayed against T2, FMC63 IgG (assay: yeast-display FACS (MFI) titration with biotinylated FMC63 IgG, 0.01-1000 nM).
RMCPWSCRPH [FMC63 Mimotope (A8) RMCPWSCRPH] gave a Kd of 397 nM. For RICPWSCMVV [FMC63 Mimotope (B7) RICPWSCMVV], the Kd was 376 nM. Binder B1 has a Kd of 199 nM. RLCPWSCREL (Parent of the alanine scan) [FMC63 Mimotope (G9) RLCPWSCREL] showed a Kd of 25.7 nM. For RLCPWNCREL [FMC63 Mimotope (G11) RLCPWNCREL], the Kd was 18.2 nM. RICPWSCREL [FMC63 Mimotope (H11) RICPWSCREL] gave a Kd of 10.3 nM. For RLCPWDCREL [FMC63 Mimotope (F8) RLCPWDCREL], the Kd was 10.6 nM. Work on RICPWACVEL [FMC63 Mimotope (H8) RICPWACVEL] yielded a Kd of 9.5 nM. In the case of RRCPWSCKKQ [FMC63 Mimotope (A12) RRCPWSCKKQ], the Kd is reported as 540 nM. For RMCPWSCYEL [FMC63 Mimotope (C5) RMCPWSCYEL], the Kd was 322 nM. For RLCPWACQEQ [FMC63 Mimotope (C7) RLCPWACQEQ], the Kd was 252 nM. Work on RLCPWSCVPI [FMC63 Mimotope (E6) RLCPWSCVPI] yielded a Kd of 102 nM.

Each binder was assayed against T3, FMC63 scFv (assay: flow cytometry (MFI) of yeast clone with biotinylated FMC63 scFv and streptavidin-PE).
In the case of PLSRICPWNCKELYWLPQR [FMC63 mimotope K-A5 PLSRICPWNCKELYWLPQR], the Kd is reported as 12.8 nM. For AKRRERDYVGRICPWNCKELHPDTRHRIPV [FMC63 mimotope K-A10 AKRRERDYVGRICPWNCKELHPDTRHRIPV], the Kd was 18.7 nM. RICPWNCKEL (also called F12 mimotope) [FMC63 Mimotope (F12) RICPWNCKEL] showed a Kd of 45.5 nM. Work on PPPRICPWNCKELPLDWPW [FMC63 mimotope K-B5 PPPRICPWNCKELPLDWPW] yielded a Kd of 23.8 nM. With RICPWNCKELPSPPRIFGNR [FMC63 mimotope K-C2 RICPWNCKELPSPPRIFGNR] the Kd was 14.8 nM. Work on AGTRICPWNCKELYWLPDE [FMC63 mimotope K-D11 AGTRICPWNCKELYWLPDE] yielded a Kd of 15.9 nM. RICPWNCKELPTPYMMFDM [FMC63 mimotope K-A3 RICPWNCKELPTPYMMFDM] showed a Kd of 22.1 nM. RICPWNCKELYWLPDE [FMC63 mimotope K-A11 RICPWNCKELYWLPDE] showed a Kd of 16.8 nM. With QFQRICPWNCKELYWLPDQ [FMC63 mimotope K-F5 QFQRICPWNCKELYWLPDQ] the Kd was 13.2 nM.
